Measurements published in PMC11446229, “CyaY and TusA regulate ISC- and SUF-mediated L-cysteine desulfurase activity†” (RSC Chemical Biology, 2024).

T1: SufSE complex (SufS dimer with bound SufE), formed before CyaY was added (E. coli, UniProt P77444 1-406; P76194 1-138)
T1 construct: SufS, L-cysteine desulfurase of E. coli, as the chain of m4; SufE of E. coli, as the chain of m5; A mixture of complexes: mainly one or two SufE on each SufS dimer, with some (SufE)3(SufS)2 before CyaY was added; In the activity assay 30 uM SufS plus 90 uM SufE; also called SufE–SufS complexes; SufS/SufE; source: mixed from SufS and SufE, each purified from E. coli BL21 DE3; copies: 2 +
T1 sequence (looked up) 1: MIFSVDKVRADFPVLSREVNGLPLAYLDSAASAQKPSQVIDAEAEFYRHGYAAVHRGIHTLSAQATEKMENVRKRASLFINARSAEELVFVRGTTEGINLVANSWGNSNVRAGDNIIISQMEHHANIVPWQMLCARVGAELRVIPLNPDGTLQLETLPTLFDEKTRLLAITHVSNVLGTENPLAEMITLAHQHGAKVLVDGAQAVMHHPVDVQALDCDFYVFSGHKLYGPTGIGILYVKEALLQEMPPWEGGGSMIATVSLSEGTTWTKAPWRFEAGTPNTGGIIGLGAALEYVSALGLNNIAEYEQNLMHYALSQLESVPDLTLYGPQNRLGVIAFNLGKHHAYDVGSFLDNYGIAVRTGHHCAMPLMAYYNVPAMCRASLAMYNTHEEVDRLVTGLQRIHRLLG
T1 sequence (looked up) 2: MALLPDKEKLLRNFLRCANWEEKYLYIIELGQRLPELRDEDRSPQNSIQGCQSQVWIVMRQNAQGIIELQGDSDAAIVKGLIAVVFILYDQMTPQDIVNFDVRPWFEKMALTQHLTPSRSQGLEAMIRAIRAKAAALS

B1: SufS, cysteine desulfurase of the SUF system (enzyme, E. coli, UniProt P77444 1-406, looked up)
chain: T1 sequence (looked up) 1
notes: SufS, L-cysteine desulfurase of E. coli; Seen by native MS as a dimer with associated PLP cofactors (89 956 Da; predicted 89 892 Da + (S0)2); Surmise: the predicted mass is larger than two natural chains plus two PLP, so a few residues may be left on each chain after thrombin cleavage; also called (SufS)2; dimeric SufS; source: E. coli BL21 DE3, plasmid pSL213, purified, (His)6-tag cleaved with …
B2: CyaY, the frataxin homolog of Escherichia coli (natural protein, E. coli, UniProt P27838 1-106, looked up)
chain: MNDSEFHRLADQLWLTIEERLDDWDGDSDIDCEINGGVLTITFENGSKIIINRQEPLHQVWLATKQGGYHFDLKGDEWICDRSGETFWDLLEQAATQQAGETVSFR
notes: CyaY, frataxin homolog of E. coli; Two plasmids are named (pET15b or pMB10); also called CyaY-(His)6; source: E. coli BL21 DE3, plasmid pET15b or pMB10, purified, (His)6-tag cleaved with thrombin
B3: SufE (natural protein, E. coli, UniProt P76194 1-138, looked up)
chain: T1 sequence (looked up) 2
notes: SufE, sulfur acceptor of SufS, E. coli; Tag cleavage is told only of SufS and CyaY; Surmise: the printed mass interval of ~16.7 kDa for each SufE is larger than the natural chain, so the tag may have been kept; also called SufE-(His)6; source: E. coli BL21 DE3, plasmid pET15b, purified (previously published procedures)

What was measured:
[1] = target: the molecule itself; test: native MS; desulfurase alone, ~8 uM (~4 uM dimer), 250 mM ammonium acetate pH 8.0, deconvoluted spectrum
[2] = target: T2, IscS, cysteine desulfurase of the ISC system (E. coli, UniProt P0A6B7 1-404); test: native MS; IscS (8 uM, 4 uM dimer) pre-treated with 0.5 equivalents of TusA (4 uM), then titrated with CyaY; 250 mM ammonium acetate pH 8; relative intensities fitted to a simple competition binding model (Dynafit); conditions: both partners purified
T2 construct: IscS, L-cysteine desulfurase of E. coli; Seen by native MS as a dimer with associated PLP cofactors (90 662 Da; predicted 90 642 Da + Na); No tag is named for this construct; Surmise: the predicted mass fits two untagged whole chains plus two PLP; also called (IscS)2; dimeric IscS; source: E. coli BL21 DE3, plasmid pSL209, purified (previously published procedures)

[3] = target: T1, SufSE complex (SufS dimer with bound …); test: native MS; pre-formed SufSE complexes treated with a 4-fold excess of CyaY and titrated with CyaY up to about 35 uM; 250 mM ammonium acetate pH 8; only the first part of the titration measured, Kd an approximation; conditions: both partners purified
[4] = target: B1; test: native MS; SufS (~8 uM, ~4 uM dimer) titrated with SufE; 250 mM ammonium acetate pH 8; relative intensities fitted to a sequential binding model (Dynafit); conditions: both partners purified

B1
stoichiometry N [1]: 2

B2
Kd [2]: ~26 µM
stoichiometry N [2]: ≤ 2 per IscS dimer
Kd [3]: ~70 µM

B3
Kd of the first and second SufE on the SufS dimer (high affinity site) [4]: ~8 µM
Kd of the third and fourth SufE on the SufS dimer (low affinity site) [4]: ~71 µM
stoichiometry N [4]: ≤ 4 per SufS dimer
